Laboratory results taken from patent US6322962A, “Sterol-regulated Site-1 protease and assays of modulators thereof” (Board of Regents, The University of Texas System, priority 1999, dated 2001).
One block for each molecule: values may come before it.

Columns and labels:
purified S1P(983)-C = biological target: T1, purified S1P(983)-C (Cricetulus griseus, UniProt Q9Z2A8, T875N); assay: HPLC assay for S1P activity with 16-amino acid synthetic peptides; type: biochemical, hamster; conditions: 4 h, 37° C.
T1 construct: Truncated S1P (amino acids 1-983); GGR linker (NotI site); made in house; host or cells: SRD-12B cells (mutant CHO cells lacking S1P) stably transfected with pCMV-S1P(983)-Myc-His (TR-3117, 'S1P(983) cells'); secreted into the medium and purified on Ni-NTA
T1 sequence (Q9Z2A8 187-983 T875N): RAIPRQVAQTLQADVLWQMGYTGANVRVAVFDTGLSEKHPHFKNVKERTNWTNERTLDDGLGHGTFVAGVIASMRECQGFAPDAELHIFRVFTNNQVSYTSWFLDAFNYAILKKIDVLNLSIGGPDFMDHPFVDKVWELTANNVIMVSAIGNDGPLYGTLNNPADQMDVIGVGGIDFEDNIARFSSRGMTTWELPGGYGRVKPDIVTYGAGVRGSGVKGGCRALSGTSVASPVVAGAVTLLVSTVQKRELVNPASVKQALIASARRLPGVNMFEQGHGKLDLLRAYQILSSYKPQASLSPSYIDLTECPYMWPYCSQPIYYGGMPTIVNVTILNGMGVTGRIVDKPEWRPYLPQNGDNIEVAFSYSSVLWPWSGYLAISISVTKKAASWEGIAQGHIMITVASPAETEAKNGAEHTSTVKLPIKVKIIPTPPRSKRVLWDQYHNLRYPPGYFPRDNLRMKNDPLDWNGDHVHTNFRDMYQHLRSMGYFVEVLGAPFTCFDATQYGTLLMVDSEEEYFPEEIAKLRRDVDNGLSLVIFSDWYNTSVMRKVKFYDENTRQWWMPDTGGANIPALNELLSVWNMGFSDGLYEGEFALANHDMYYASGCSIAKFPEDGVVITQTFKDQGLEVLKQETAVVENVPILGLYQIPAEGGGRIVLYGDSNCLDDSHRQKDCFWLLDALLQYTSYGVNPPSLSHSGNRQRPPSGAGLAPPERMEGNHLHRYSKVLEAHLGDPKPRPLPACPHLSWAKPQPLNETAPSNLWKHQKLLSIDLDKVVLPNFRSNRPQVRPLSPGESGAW
Procedure: HPLC Assay for S1P Activity
Each reaction was carried out in a final volume of […] of assay buffer (see above) containing a 16-amino acid synthetic peptide (final concentration 300 μM); and 3 μg purified S1P(983)-C. After incubation for 4 h at 37° C., the reaction products were separated by reverse-phase HPLC on a 4.6×250-mm RP300 column using a Waters HPLC system. Chromatography was performed in 0.1% (v/v) trifluoroacetic acid at 0.75 ml/min. […] Peptide masses were measured by matrix-assisted laser desorption/ionization (MALDI) mass spectrometry using a Voyager DE time-of-flight mass spectrometer from PerSeptive Biosystems (Framingham, Mass.) with α-cyano-4-hydroxycinnamic acid (Aldrich Chemical, Dorset, UK) as the matrix.
The failure of S1P(983)-C to cleave the RSVL-MCA peptides (SEQ ID NO:11) might have been due to an inability of the enzyme to recognize the RSVL sequence (SEQ ID NO:11), or alternatively it might be due to the resistance of the peptide-MCA bond to cleavage. To distinguish between these possibilities, the inventors prepared 16-residue peptides composed of the amino acids surrounding the internal cleavage Site-B in S1P (i. e., RSLK, SEQ ID NO:18) or Site-1 in SREBP-2 (i. e., RSVL, SEQ ID NO:11). The peptides were incubated with or without purified S1P(983)-C, and the products were separated by HPLC. […]

S1P = assay: Immunoblot of processing of S1P to the B and C forms in transfected cells; conditions: S1P(1052) and S1P(983) cells, compactin plus or minus sterols
From the text: Sterol-regulated cleavage of SREBP-2 in SRD-12B cells expressing full-length or truncated S1P. […] SS denotes signal sequence; Pro denotes the propeptide region of S1P; TM denotes transmembrane domain; Ser414 is the active-site serine residue. […] On day 0, cells were set up for studies at a density of 1×10^6 cells/100-mm dish in medium B supplemented with 5% fetal calf serum. On day 2, the cells were switched to medium B containing 5% newborn calf lipoprotein-deficient serum and the indicated addition: none (FIG. 20B and FIG. 20C, lanes 1,4,7,10); 50 μM compactin and 50 μM mevalonate (FIG. 20B and FIG. 20C, lanes 2,5,8,11); 50 μM compactin, 50 μM mevalonate, and a mixture of 1 μg/ml 25-hydroxycholesterol plus 10 μg/ml cholesterol (FIG. 20B and FIG. 20C lanes 3,6,9,12). […] Aliquots of the 10^5 g membrane fraction (10 μg protein) were subjected to SDS-PAGE and immunoblotted with 0.5 μg/ml of anti-Myc monoclonal antibody 9E10. The filters were exposed to Kodak X-Omat Blue XB-1 film for 1 s at room temperature. […]
To quantify expression of the transfected S1P, the cells were homogenized, and a crude membrane pellet was subjected to SDS-PAGE and immunoblotted with an antibody against the Myc tag (FIG. 20B). […]

SREBP-2 = assay: Immunoblot of nuclear SREBP-2 in CHO-7, S1P(1052) and S1P(983) cells; type: cell-based, hamster; conditions: CHO-7 cells
Procedure: FIGS. 20(A-C). […] FIG. 20A. […] FIG. 20B and FIG. 20C. […] FIG. 20B. […] FIG. 20C. […] Molecular mass standards are expressed in kDa.
The amount was increased when the cells were further deprived of sterols by treatment with compactin (FIG. 20C, lane 2). The band disappeared when the compactin-treated cells were incubated with sterols (FIG. 20C, lane 3). […] In the absence of sterols, nuclear SREBP-2 was found in both the S1P(1052) cells and the S1P(983) cells either in the absence or presence of compactin (FIG. 20C, lanes 7,8,10,11). In both cases nuclear SREBP-2 was abolished by addition of sterols (FIG. 20C, lanes 9 and 12). […] The bottom panel of FIG. 20C confirms that membranes from all of the cells contained the precursor form of SREBP-2.

[1] = biological target: T2, Ac-VFRSRR-MCA (Artificial Sequence)
T2 sequence (peptide, N-terminal acetyl; C-terminal amide of 7-amino-4-methyl-coumarin (MCA)): VFRSRR

[2] = biological target: T3, Boc-RVRR-MCA (Artificial Sequence)
T3 sequence (peptide, N-terminal Boc; C-terminal amide of 7-amino-4-methyl-coumarin (MCA)): RVRR

[3] = biological target: T4, Ac-VFRSLK-MCA (Artificial Sequence)
T4 sequence (peptide, N-terminal acetyl; C-terminal amide of 7-amino-4-methyl-coumarin (MCA)): VFRSLK

[4] = biological target: T5, Ac-VFASLK-MCA (Artificial Sequence)
T5 sequence (peptide, N-terminal acetyl; C-terminal amide of 7-amino-4-methyl-coumarin (MCA)): VFASLK

[5] = biological target: T6, Ac-RSVL-MCA (Artificial Sequence)
T6 sequence (peptide, N-terminal acetyl; C-terminal amide of 7-amino-4-methyl-coumarin (MCA)): RSVL

[6] = biological target: T7, Ac-RSLK-MCA (Artificial Sequence)
T7 sequence (peptide, N-terminal acetyl; C-terminal amide of 7-amino-4-methyl-coumarin (MCA)): RSLK

[7] = biological target: T8, Ac-SGRSVL-MCA (Artificial Sequence)
T8 sequence (peptide, N-terminal acetyl; C-terminal amide of 7-amino-4-methyl-coumarin (MCA)): SGRSVL

[8] = biological target: T9, Ac-SGSGRSVL-MCA (Artificial Sequence)
T9 sequence (peptide, N-terminal acetyl; C-terminal amide of 7-amino-4-methyl-coumarin (MCA)): SGSGRSVL

[9] = biological target: T4, Ac-VFRSLK-MCA (Artificial Sequence); remark: listed apart in the source

- cleavage of 16-residue peptide (purified S1P(983)-C): did cleave
Molecule: NH2 -His-Ser-Gly-Ser-Gly-Arg-Ser-Val-Leu-Ser-Phe-Glu-Ser-Gly-Ser-Gly-COOH (H-HSGSGRSVLSFESGSG-OH) [SEQ ID NO:55]

Molecule: compactin
- amounts of the different S1P bands (S1P): not altered
- nuclear SREBP-2 (SREBP-2): increased

- Relative Activity (cleavage of fluorogenic peptide-MCA, AMC liberated) (relative activity) [1]: < 0.1
- Relative Activity (cleavage of fluorogenic peptide-MCA, AMC liberated) (relative activity) [2]: < 0.1
- Relative Activity (cleavage of fluorogenic peptide-MCA, AMC liberated) (relative activity) [3]: 1
- Relative Activity (cleavage of fluorogenic peptide-MCA, AMC liberated) (relative activity) [4]: < 0.1
- Relative Activity (cleavage of fluorogenic peptide-MCA, AMC liberated) (relative activity) [5]: < 0.1
- Relative Activity (cleavage of fluorogenic peptide-MCA, AMC liberated) (relative activity) [6]: 0.47
- Relative Activity (cleavage of fluorogenic peptide-MCA, AMC liberated) (relative activity) [7]: < 0.1
- Relative Activity (cleavage of fluorogenic peptide-MCA, AMC liberated) (relative activity) [8]: < 0.1
- Kcat (cleavage of peptide-MCA) (mol/min/mol of enzyme) [9]: 0.16
- Km (Lineweaver-Burk plot, cleavage of peptide-MCA) [9]: 100 µM
- Vmax (Lineweaver-Burk plot, cleavage of peptide-MCA) (nmol/min/mg protein) [9]: 1.6
B1: S1P(983)-C, purified secreted enzyme (enzyme)
chain: RAIPRQVAQTLQADVLWQMGYTGANVRVAVFDTGLSEKHPHFKNVKERTNWTNERTLDDGLGHGTFVAGVIASMRECQGFAPDAELHIFRVFTNNQVSYTSWFLDAFNYAILKKIDVLNLSIGGPDFMDHPFVDKVWELTANNVIMVSAIGNDGPLYGTLNNPADQMDVIGVGGIDFEDNIARFSSRGMTTWELPGGYGRVKPDIVTYGAGVRGSGVKGGCRALSGTSVASPVVAGAVTLLVSTVQKRELVNPASVKQALIASARRLPGVNMFEQGHGKLDLLRAYQILSSYKPQASLSPSYIDLTECPYMWPYCSQPIYYGGMPTIVNVTILNGMGVTGRIVDKPEWRPYLPQNGDNIEVAFSYSSVLWPWSGYLAISISVTKKAASWEGIAQGHIMITVASPAETEAKNGAEHTSTVKLPIKVKIIPTPPRSKRVLWDQYHNLRYPPGYFPRDNLRMKNDPLDWNGDHVHTNFRDMYQHLRSMGYFVEVLGAPFTCFDATQYGTLLMVDSEEEYFPEEIAKLRRDVDNGLSLVIFSDWYNTSVMRKVKFYDENTRQWWMPDTGGANIPALNELLSVWNMGFSDGLYEGEFALANHDMYYASGCSIAKFPEDGVVITQTFKDQGLEVLKQETAVVENVPILGLYQIPAEGGGRIVLYGDSNCLDDSHRQKDCFWLLDALLQYTSYGVNPPSLSHSGNRQRPPSGAGLAPPERMEGNHLHRYSKVLEAHLGDPKPRPLPACPHLSWAKPQPLNETAPSNLWKHQKLLSIDLDKVVLPNFRSNRPQVRPLSPGESGAWGGREQKLISEEDLGGEQKLISEEDLGPRFEQKLISEEDLDMHTGHHHHHH
